The record followed here is the supplement of paper PMC5998384.

In data set [1] the test system is HeLa Kyoto. Briefly: solubility in G1/S (NP-40 vs SDS abundance) (log2 ratio); higher = more soluble. The note with it: cell cycle stage: G1/S.
In data set [2] the test system is HeLa Kyoto. Kind of data set: melting temperature (median over replicates), in situ; higher = more thermally stable.
Data set [3] concerns HeLa Kyoto. Kind of data set: solubility change mitosis vs G1/S (difference of NP-40 vs SDS log2 ratios) (log2 ratio difference); higher = more soluble in mitosis.
Data set [4] deals with HeLa Kyoto. Briefly: thermal stability score vs G1/S (z-score of summed log2 fold changes over temperatures); higher = more thermally stable than in G1/S.
The mark [5] stands for this setting: cell cycle stage: early G1 (4.5 h after nocodazole release).
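Wherever melting temperature (median over replicates), in situ is given: HeLa Kyoto cells synchronized by double thymidine or nocodazole block, proteins quantified by TMT10plex mass spectrometry, three independent biological replicates.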
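Wherever solubility change mitosis vs G1/S (difference of NP-40 vs SDS log2 ratios) is given: synchronized HeLa Kyoto cells (double thymidine block for G1/S, nocodazole release for mitosis), protein amounts in NP-40 versus SDS lysates quantified by mass spectrometry, three biological replicates.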
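Wherever solubility in G1/S (NP-40 vs SDS abundance) is given: HeLa Kyoto cells arrested at G1/S by double thymidine block, proteins quantified by TMT10plex mass spectrometry in mild NP-40 versus SDS extracts, three biological replicates.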
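Wherever thermal stability score vs G1/S (z-score of summed log2 fold changes over temperatures) is given: synchronized HeLa Kyoto cells, proteins quantified by TMT10plex mass spectrometry, three biological replicates, mitosis taken 0.5 h after nocodazole release, G1/S directly after double thymidine block.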

Take “MDSRYNSTAGIGDLNQLSAAIPATRVEVSVSCRNLLDRDTFSKSDPICVLYVQGVGNKEWREFGRTEVIDNTLNPDFVRKFILDYFFEERENLRFDLYDVDSKSPNLSKHDFLGQVFCTLGEIVGSQGSRLEKPIVGIPGKKCGTIILTAEELNCCRDAVLMQFCANKLDKKDFFGKSDPFLVFYRSNEDGSFTICHKTEVVKNTLNPVWQAFKISVRALCNGDYDRTIKVEVYDWDRDGSHDFIGEFTTSYRELSRGQSQFNVYEVVNPKKKGKKKKYTNSGTVTLLSFLVETEVSFLDYIKGGTQINFTVAIDFTASNGNPAQPTSLHYMNPYQLNAYGMALKAVGEIVQDYDSDKMFPALGFGAKLPPDGRISHEFALNGNPQNPYCDGIEGVMEAYYRSLKSVQLYGPTNFAPVINHVARYASSVKDGSQYFVLLIVTDGVISDMAQTKESIVNASKLPMSIIIVGVGPAEFDAMVELDGDDVRVSSRGKYAERDIVQFVPFRDYIDRSGNHILSMARLAKDVLAEIPEQFLSYMRARGIKPSPAPPPYTPPTHVLQTQI [CPNE8]”: the “solubility in G1/S (log2)” value in the data set on HeLa Kyoto [1] was -1.4. Besides, the melting temperature in the data set on HeLa Kyoto [2] (cell cycle stage: G1/S) is 54.1 °C; in the data set with HeLa Kyoto [2] (cell cycle stage: mitosis), 53 °C. In the data set on HeLa Kyoto [3], the “solubility change mitosis (log2)” value was -0.135. Moreover, the thermal stability score in the data set with HeLa Kyoto [4] (setting [5]) came to 1.74; in the data set with HeLa Kyoto [4] (cell cycle stage: mitosis), 5.6.

For “MDTCGVGYVALGEAGPVGNMTVVDSPGQEVLNQLDVKTSSEMTSAEASVEMSLPTPLPGFEDSPDQRRLPPEQESLSRLEQPDLSSEMSKVSKPRASKPGRKRGGRTRKGPKRPQQPNPPSAPLVPGLLDQSNPLSTPMPKKRGRKSKAELLLLKLSKDLDRPESQSPKRPPEDFETPSGERPRRRAAQVALLYLQELAEELSTALPAPVSCPEGPKVSSPTKPKKIRQPAACPGGEEVDGAPRDEDFFLQVEAEDVEESEGPSESSSEPEPVVPRSTPRGSTSGKQKPHCRGMAPNGLPNHIMAPVWKCLHLTKDFREQKHSYWEFAEWIPLAWKWHLLSELEAAPYLPQEEKSPLFSVQREGLPEDGTLYRINRFSSITAHPERWDVSFFTGGPLWALDWCPVPEGAGASQYVALFSSPDMNETHPLSQLHSGPGLLQLWGLGTLQQESCPGNRAHFVYGIACDNGCIWDLKFCPSGAWELPGTPRKAPLLPRLGLLALACSDGKVLLFSLPHPEALLAQQPPDAVKPAIYKVQCVATLQVGSMQATDPSECGQCLSLAWMPTRPHQHLAAGYYNGMVVFWNLPTNSPLQRIRLSDGSLKLYPFQCFLAHDQAVRTLQWCKANSHFLVSAGSDRKIKFWDLRRPYEPINSIKRFLSTELAWLLPYNGVTVAQDNCYASYGLCGIHYIDAGYLGFKAYFTAPRKGTVWSLSGSDWLGTIAAGDISGELIAAILPDMALNPINVKRPVERRFPIYKADLIPYQDSPEGPDHSSASSGVPNPPKARTYTETVNHHYLLFQDTDLGSFHDLLRREPMLRMQEGEGHSQLCLDRLQLEAIHKVRFSPNLDSYGWLVSGGQSGLVRIHFVRGLASPLGHRMQLESRAHFNAMFQPSSPTRRPGFSPTSHRLLPTP [GTF3C2]”, the “solubility in G1/S (log2)” value in the data set on HeLa Kyoto [1] is -0.18. The melting temperature with HeLa Kyoto [2] (cell cycle stage: G1/S) was found to be 46.5 °C; with HeLa Kyoto [2] (cell cycle stage: mitosis), 49.5 °C. Moreover, the “solubility change mitosis (log2)” value with HeLa Kyoto [3] was found to be 0.119. The thermal stability score in the data set with HeLa Kyoto [4] (setting [5]) was 2.79; with HeLa Kyoto [4] (cell cycle stage: mitosis), 6.24.

Regarding “MDTDLYDEFGNYIGPELDSDEDDDELGRETKDLDEMDDDDDDDDVGDHDDDHPGMEVVLHEDKKYYPTAEEVYGPEVETIVQEEDTQPLTEPIIKPVKTKKFTLMEQTLPVTVYEMDFLADLMDNSELIRNVTLCGHLHHGKTCFVDCLIEQTHPEIRKRYDQDLCYTDILFTEQERGVGIKSTPVTVVLPDTKGKSYLFNIMDTPGHVNFSDEVTAGLRISDGVVLFIDAAEGVMLNTERLIKHAVQERLAVTVCINKIDRLILELKLPPTDAYYKLRHIVDEVNGLISMYSTDENLILSPLLGNVCFSSSQYSICFTLGSFAKIYADTFGDINYQEFAKRLWGDIYFNPKTRKFTKKAPTSSSQRSFVEFILEPLYKILAQVVGDVDTSLPRTLDELGIHLTKEELKLNIRPLLRLVCKKFFGEFTGFVDMCVQHIPSPKVGAKPKIEHTYTGGVDSDLGEAMSDCDPDGPLMCHTTKMYSTDDGVQFHAFGRVLSGTIHAGQPVKVLGENYTLEDEEDSQICTVGRLWISVARYHIEVNRVPAGNWVLIEGVDQPIVKTATITEPRGNEEAQIFRPLKFNTTSVIKIAVEPVNPSELPKMLDGLRKVNKSYPSLTTKVEESGEHVILGTGELYLDCVMHDLRKMYSEIDIKVADPVVTFCETVVETSSLKCFAETPNKKNKITMIAEPLEKGLAEDIENEVVQITWNRKKLGEFFQTKYDWDLLAARSIWAFGPDATGPNILVDDTLPSEVDKALLGSVKDSIVQGFQWGTREGPLCDELIRNVKFKILDAVVAQEPLHRGGGQIIPTARRVVYSAFLMATPRLMEPYYFVEVQAPADCVSAVYTVLARRRGHVTQDAPIPGSPLYTIKAFIPAIDSFGFETDLRTHTQGQAFSLSVFHHWQIVPGDPLDKSIVIRPLEPQPAPHLAREFMIKTRRRKGLSEDVSISKFFDDPMLLELAKQDVVLNYPM [EFTUD2]”, in the data set on HeLa Kyoto [1], the “solubility in G1/S (log2)” value was -0.443. Besides, the melting temperature turned out to be 57.4 °C in the data set with HeLa Kyoto [2] (cell cycle stage: G1/S) and 56.2 °C in the data set on HeLa Kyoto [2] (cell cycle stage: mitosis). In the data set with HeLa Kyoto [3], the “solubility change mitosis (log2)” value amounted to 0.215. Further, the thermal stability score with HeLa Kyoto [4] (setting [5]) is -1.97; in the data set with HeLa Kyoto [4] (cell cycle stage: mitosis), -2.33.
